Results taken from US12534534 (F STAR BETA, dated 2026).

T1: cyno CD137 on DO11.10-cCD137 cells (cynomolgus, UniProt Q07011 24-255 (human entry))
T1 chain: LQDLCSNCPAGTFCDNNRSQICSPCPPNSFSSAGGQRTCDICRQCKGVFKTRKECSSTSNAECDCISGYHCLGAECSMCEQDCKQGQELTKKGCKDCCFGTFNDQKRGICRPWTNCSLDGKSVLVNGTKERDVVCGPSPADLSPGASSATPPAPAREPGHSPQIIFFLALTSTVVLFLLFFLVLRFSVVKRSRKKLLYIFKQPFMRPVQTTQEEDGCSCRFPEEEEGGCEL

T2: cCD137-mFc-Avi (cynomolgus, Homodimer through the mouse Fc (one chain given). In the biotinylated version one biotin sits on the Avi-tag lysine of each monomer.)
T2 construct: dimer; biotinylated version used on streptavidin plates; also called cyno CD137-mFc-Avi; cyno CD137-mFc
T2 chain: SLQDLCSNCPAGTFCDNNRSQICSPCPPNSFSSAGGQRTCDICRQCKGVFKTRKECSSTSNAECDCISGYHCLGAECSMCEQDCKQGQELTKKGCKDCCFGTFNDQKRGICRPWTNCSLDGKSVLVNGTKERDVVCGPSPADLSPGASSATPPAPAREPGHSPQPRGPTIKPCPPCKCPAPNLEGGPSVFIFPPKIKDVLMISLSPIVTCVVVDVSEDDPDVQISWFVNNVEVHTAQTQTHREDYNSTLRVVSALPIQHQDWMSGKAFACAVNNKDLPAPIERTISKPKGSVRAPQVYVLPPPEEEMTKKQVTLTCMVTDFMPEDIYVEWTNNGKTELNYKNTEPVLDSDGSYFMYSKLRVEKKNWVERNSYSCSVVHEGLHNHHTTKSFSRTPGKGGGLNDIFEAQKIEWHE

B1: FS20-22-49AA/FS30-5-37 (bispecific antibody, human IgG1, kappa, L234A L235A, V domains shown)
VH: EVQLLESGGGLVQPGGSLRLNCAASGFTFSSYAMSWVRQAPGKGLEWVSAISGSGGSTYYADSVKGRFTISRDNSKNTLYLQMNSLRAEDTAVYYCARSYDKYWGSSIYSGLDYWGQGTLVTVSS
VL: EIVLTQSPGTLSLSPGERATLSCRASQSVSSSYLAWYQQKPGQAPRLLIYGASSRATGIPDRFSGSGSGTDFTLTISRLEPEDFAVYYCQQYYSYYPVTFGQGTKVEIKR
notes: M100D to I and M100H to L against FS30-5; also called FS30-5-37 in mAb^2 format
B2: FS20-22-49AA/FS30-10-3 (bispecific antibody, human IgG1, kappa, L234A L235A, V domains shown)
VH: EVQLLESGGGLVQPGGSLRLSCAASGFTFSSYDMSWVRQAPGKGLEWVSDIDPTGSKTDYADSVKGRFTISRDNSKNTLYLQMNSLRAEDTAVYYCARDLNVYGFDYWGQGTLVTVSS
VL: EIVLTQSPGTLSLSPGERATLSCRASQSVSSSYLAWYQQKPGQAPRLLIYGASSRATGIPDRFSGSGSGTDFTLTISRLEPEDFAVYYCQQSYSYPVTFGQGTKVEIKR
notes: M97 (Kabat) to N against FS30-10; also called FS30-10-3 in mAb^2 format
B3: FS20-22-49AA/FS30-10-12 (bispecific antibody, human IgG1, kappa, L234A L235A, V domains shown)
VH: EVQLLESGGGLVQPGGSLRLSCAASGFTFSSYDMSWVRQAPGKGLEWVSDIDPTGSKTDYADSVKGRFTISRDNSKNTLYLQMNSLRAEDTAVYYCARDLTVYGFDYWGQGTLVTVSS
VL: EIVLTQSPGTLSLSPGERATLSCRASQSVSSSYLAWYQQKPGQAPRLLIYGASSRATGIPDRFSGSGSGTDFTLTISRLEPEDFAVYYCQQSYSYPVTFGQGTKVEIKR
notes: M97 (Kabat) to T against FS30-10; also called FS30-10-12 in mAb^2 format
B4: FS20-22-49AA/FS30-10-16 (bispecific antibody, human IgG1, kappa, L234A L235A, V domains shown)
VH: EVQLLESGGGLVQPGGSLRLSCAASGFTFSSYDMSWVRQAPGKGLEWVSDIDPTGSKTDYADSVKGRFTISRDNSKNTLYLQMNSLRAEDTAVYYCARDLLVYGFDYWGQGTLVTVSS
VL: EIVLTQSPGTLSLSPGERATLSCRASQSVSSSYLAWYQQKPGQAPRLLIYGASSRATGIPDRFSGSGSGTDFTLTISRLEPEDFAVYYCQQSYSYPVTFGQGTKVEIKR
notes: M97 (Kabat) to L against FS30-10; also called FS30-10-16 in mAb^2 format
B5: FS20-22-49AA/FS30-35-14 (bispecific antibody, human IgG1, kappa, L234A L235A, V domains shown)
VH: EVQLLESGGGLVQPGGSLRLSCAASGFTFSAYNIHWVRQAPGKGLEWVSDISPYGGATNYADSVKGRFTISRDNSKNTLYLQMNSLRAEDTAVYYCARNLYELSAYSYGADYWGQGTLVTVSS
VL: EIVLTQSPGTLSLSPGERATLSCRASQSVSSSYLAWYQQKPGQAPRLLIYGASSRATGIPDRFSGSGSGTDFTLTISRLEPEDFAVYYCQQYYYSSPITFGQGTKVEIKR
notes: M100F (Kabat) to A against FS30-35; also called FS30-35-14 in mAb^2 format

Tests used:
[1] = molecular target: T1, cyno CD137 on DO11.10-cCD137 cells; test: cell-based or functional assay
hCD137-mFc-Avi [2] = molecular target: T3, hCD137-mFc-Avi (human, UniProt Q07011 24-186); test: SPR (Biacore 3000), mAb^2 captured by anti-human Fc, dimeric CD137-mFc as analyte, 1:1 model with mass transfer
T3 construct: dimer; also called human CD137-mFc-Avi; human CD137-mFc
Protocol: (§1) Briefly, 25 µg/ml anti-human IgG (Fc) antibody (GE Healthcare, Human Antibody Capture Kit, BR100839) was coated on flow cells 1, 2, 3 and 4 of a Biacore sensor chip CM5 (GE Healthcare, BR100012) for 3 minutes at 5 µl/min, achieving a final response of approximately 4300 RU. The mAb² clones, diluted in HBS-EP buffer (GE Healthcare, BR100188) at 0.5 µg/ml, were injected individually on flows cell 2, 3 and 4 at 30 µl/min to achieve a response of approximately 80 RU. […] Regeneration was achieved by injecting 3 M magnesium chloride (GE Healthcare, Human Antibody Capture Kit, BR100839) for 30 seconds at a rate of 30 µl/min. […] These slightly less stringent conditions were used to assess whether this molecule could bind to cyno CD137-mFc. Subtracted data (flow cell 2-flow cell 1, flow cell 3-flow cell 1, or flow cell 4-flow cell 1) were analysed using BIAevaluation 3.2 Software (GE Healthcare) to identify binding using the model 1:1 binding with mass transfer, with refractive index (RI) constant 0.

cCD137-mFc-Avi = molecular target: T2, cCD137-mFc-Avi; test: as above
Protocol: as §1

hCD137-mFc-Avi [3] = molecular target: T3, hCD137-mFc-Avi; test: ELISA, hCD137-mFc-Avi coated, 100 nM antibody, competitor CD137L-His; normalised to G1/11D4 = 0 and G1/MOR7480.1 = 100; mean of n=2
Protocol: The following day, plates were washed with PBST (PBS+0.05% Tween20™) and blocked with PBS+1% BSA (Sigma, A3059-500G) for 1 hour at room temperature with agitation. After blocking, the plates were washed again with PBST. A 100 nM dilution of each test antibody was prepared in PBS+1% BSA and added to the CD137-coated plates and incubated for 1 hour at room temperature with agitation. […] The plates were then washed with PBST and then incubated with anti-his secondary antibody (R&D Systems, MAB050H) at a 1 in 1000 dilution in PBS for 1 hour at room temperature with agitation. The plates were then washed with PBST and incubated with TMB detection reagent (Thermo Fisher Scientific, 002023) until the positive control wells turned blue and then the reaction was stopped with the addition of 2N H_2SO_4. Plates were read at 450 nm using the plate reader with Gen5 Software, BioTek. Absorbance values of 630 nm were subtracted from those of 450 nm (Correction). The subtracted absorbance values were plotted vs the log concentration of antibody and the resulting curves were fitted using the log (inhibitor) vs response equation in GraphPad Prism.

hCD137-mFc-Avi [4] = molecular target: T3, hCD137-mFc-Avi; test: SPR (Biacore 3000), against the positive control G1/MOR7480.1
Protocol: as §1

| Binder | EC50 (nM), mIL-2 release, DO11.10-cCD137 T cell assay, crosslinked (mean of n = 2) [1] | Emax (mIL-2 pg/ml), DO11.10-cCD137 T cell assay, crosslinked [1] | Kd (hCD137-mFc-Avi [2]) | Kd (cCD137-mFc-Avi) | % CD137 ligand blocking activity (hCD137-mFc-Avi [3]) | fold higher binding affinity than G1/MOR7480.1 (hCD137-mFc-Avi [4]) |
| --- | --- | --- | --- | --- | --- | --- |
| B1 | 7.5 nM | 45700 pg/mL | 3.45 nM | 3 nM | 107% | – |
| B2 | 5 nM | 49400 pg/mL | 0.19 nM | 0.22 nM | 49.4% | ~3 fold |
| B3 | 5.8 nM | 46900 pg/mL | 6.31 nM | 4.63 nM | 53.8% | – |
| B4 | 3.7 nM | 50100 pg/mL | 0.17 nM | 0.15 nM | 48.1% | ~3 fold |
| B5 | 6.6 nM | 69700 pg/mL | 0.6 nM | 0.67 nM | 6.6% | – |
